Data published in paper PMC10602183 (Research Square, 2023).

Experiments:
[1] = target: T1, A244 gp120 (HIV-1 isolate A244); assay: SPR; Biacore 3000, CM4 or CM5 chips; gp120 or BG505-SOSIP amine-coupled to about 750 RU; HBS pH 7.4, 3 mM EDTA, 0.005% Tween-20, 0.05% carboxymethyl-dextran; 25 ul/min, 25 °C; conditions: both partners purified
T1 construct: gp120 subunit of Env (cut product of gp160) of HIV-1 isolate A244; also called gp120 protein from A244 viral isolate

[2] = target: T2, wild type gp120 Env protein of HIV-1 JR-FL (HIV-1 isolate JR-FL, UniProt Q75760, strain); assay: ELISA; mAb64 against gp120, gp120-Core or their D368R mutant protein, as previously described; conditions: both partners purified
T2 construct: gp120 subunit of Env (cut product of gp160) of HIV-1 isolate JR-FL; The ELISA methods name gp120 and gp120-Core proteins; also called JR-FL gp120

[3] = target: T3, wild type gp120 Env protein of HIV-1 YU2 (HIV-1 isolate YU2, UniProt P35961); assay: as above; conditions: both partners purified
T3 construct: gp120 subunit of Env (cut product of gp160) of HIV-1 isolate YU2; The ELISA methods name gp120 and gp120-Core proteins; also called YU2 gp120

[4] = target: T4, HIV-1 SF162 Env on infected CD4+ T cells (HIV-1 isolate SF162, UniProt P19550, strain); assay: flow cytometry on cells; primary human CD4+ T cells infected with HIV SF162 for 3 days, stained with HmAb64 (2 ug), goat anti-human-PE; uninfected cells as control; conditions: one partner purified
T4 construct: Env as the target follows from the antibody's specificity; also called HIV-1 on cell surface; SF162 infected CD4+ T cells; source: primary human CD4+ T cells infected with HIV SF162, on cells

[5] = target: T5, gp120 derived from HIV-1 SF162, biotinylated (HIV-1 isolate SF162, UniProt P19550, strain, biotin (Lynx biotinylation kit)); assay: flow cytometry on cells; HmAb64 blocking the staining of primary human CD4+ T cells by biotinylated gp120 (antibody and gp120 both purified proteins in solution); conditions: both partners purified
T5 construct: gp120 subunit of Env (cut product of gp160) of HIV-1 isolate SF162; also called SF162 gp120

Measured: binding result

B1: HmAb64 (antibody, V domains shown)
VH: QVQLVQSGAEVKKPGASVKVSCKASGYTFTSYDITWVRQAPGQGLEWMGWISAYNGDTNYAQRLQGRVTMTTDTSTSTAYMELRSLRSDDTAVYYCARAKHTVLVTAMRWFDPWGQGTLVTVSS
VL: DIQMTQSPSSLSASVGDRVTITCRASQSISNYLNWYQQKPGKAPKLLISATSSLQSGVPSRFSGSGSGTDFTLTISSLQPDDFATYYCQQSYSTPWTFGQGTKLEIK
notes: germline IGHV1-18*01, CDR H3 of 15 aa (Kabat); full-length human IgG heavy chain cloned from clone #64; germline IGKV1-39*01, CDR L3 of 9 aa (Kabat); kappa chain cloned from clone #64; Human IgG, kappa; also called clone #64; human IgG (HmAb64)
binds: all assays above
